From paper PMC4356135, “Small heat shock protein 20 (Hsp20) facilitates nuclear import of protein kinase D 1 (PKD1) during cardiac hypertrophy” (Cell Communication and Signaling : CCS, 2015)

B1: His-tagged HSP20 protein (natural protein, UniProt O14558 1-160, looked up)
chain: MEIPVPVQPSWLRRASAPLPGLSAPGRLFDQRFGEGLLEAELAALCPTTLAPYYLRAPSVALPVAQVPTDPGHFSVLLDVKHFSPEEIAVKVVGEHVEVHARHEERPDEHGFVAREFHRRYRLPPGVDPAAVTSALSPEGVLSIQAAPASAQAPPPAAAK
notes: HSP20 (heat shock protein 20), open reading frame from Ultimate ORF clone IOH57317 in pENTR221, moved into pDEST-17 by Gateway cloning; also called His-HSP20; His-Hsp20; source: E. coli, purified (Ni-NTA Superflow resin); not shown: His, N-terminal, kept
B2: PKD1 25mer peptide spanning residues 606 to 630 (peptide array spot) (peptide)
peptide: GRDVAIKIIDKLRFPTKQESQLRNE
notes: also called G606-E630; source: SPOT-synthesised peptide on array

Key:
[1] = molecular target: T1, PKD1 on the ProtoArray Human Protein Microarray (human, UniProt Q15139 1-912); experiment: peptide or protein array; ProtoArray Human Protein Microarray probed with 10 uM (200 ug/ml) His-HSP20 in 1xPBS, 5 mM MgCl2, 0.5 mM DTT, 0.05% Triton X-100, 5% glycerol, 1% BSA for 1.5 h at 4 C; detected with anti-His and Alexa Fluor 647 secondary antibody; control array in parallel; conditions: both partners purified
T1 construct: protein kinase D1 (PKD1) as spotted on the human protein microarray; construct not described; Proteins on this commercial array may carry a carrier tag; also called protein kinase D1; source: spotted on ProtoArray Human Protein Microarray (Invitrogen)
T1 sequence (looked up): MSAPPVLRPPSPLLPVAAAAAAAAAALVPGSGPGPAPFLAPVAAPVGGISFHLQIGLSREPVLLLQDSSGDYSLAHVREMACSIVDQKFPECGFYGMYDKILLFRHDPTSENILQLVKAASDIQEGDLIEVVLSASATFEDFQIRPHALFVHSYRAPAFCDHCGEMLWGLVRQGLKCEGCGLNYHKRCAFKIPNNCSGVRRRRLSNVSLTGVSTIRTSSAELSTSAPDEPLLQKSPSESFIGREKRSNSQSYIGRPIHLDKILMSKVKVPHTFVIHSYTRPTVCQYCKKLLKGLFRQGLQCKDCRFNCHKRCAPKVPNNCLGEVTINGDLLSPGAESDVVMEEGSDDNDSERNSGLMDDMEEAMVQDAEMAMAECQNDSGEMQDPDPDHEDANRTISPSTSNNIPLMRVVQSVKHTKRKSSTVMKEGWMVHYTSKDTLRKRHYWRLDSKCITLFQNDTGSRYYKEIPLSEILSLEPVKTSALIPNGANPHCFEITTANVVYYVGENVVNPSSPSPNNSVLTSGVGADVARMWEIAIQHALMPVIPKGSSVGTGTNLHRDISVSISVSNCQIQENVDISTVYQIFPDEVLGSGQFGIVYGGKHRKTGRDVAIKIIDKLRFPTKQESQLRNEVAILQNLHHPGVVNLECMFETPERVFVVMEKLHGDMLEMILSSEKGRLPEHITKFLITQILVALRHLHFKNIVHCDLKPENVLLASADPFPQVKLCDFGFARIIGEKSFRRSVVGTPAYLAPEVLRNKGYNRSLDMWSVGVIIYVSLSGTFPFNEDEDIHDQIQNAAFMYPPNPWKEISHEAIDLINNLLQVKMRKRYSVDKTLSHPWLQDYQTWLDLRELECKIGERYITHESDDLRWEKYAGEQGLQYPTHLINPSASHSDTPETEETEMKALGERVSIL

His-tagged HSP20 protein = molecular target: B1; experiment: peptide or protein array; sequence of PKD1 spotted as 25mer peptides each shifted by five amino acids, and alanine scanning array of the 606-630 peptide, overlaid with Hsp20; methods in ref. 31; conditions: both partners purified

B1
binding result [1]: binds

B2
binding result (His-tagged HSP20 protein): binds
